From IntAct's records for PubMed 12097473

B1: Kinesin-like protein KIF1B (Homo sapiens), O60333-3 (parent)
chain: MSGASVKVAVRVRPFNSRETSKESKCIIQMQGNSTSIINPKNPKEAPKSFSFDYSYWSHTSPEDPCFASQNRVYNDIGKEMLLHAFEGYNVCIFAYGQTGAGKSYTMMGKQEESQAGIIPQLCEELFEKINDNCNEEMSYSVEVSYMEIYCERVRDLLNPKNKGNLRVREHPLLGPYVEDLSKLAVTSYTDIADLMDAGNKARTVAATNMNETSSRSHAVFTIVFTQKKHDNETNLSTEKVSKISLVDLAGSERADSTGAKGTRLKEGANINKSLTTLGKVISALAEVSKKKKKTDFIPYRDSVLTWLLRENLGGNSRTAMVAALSPADINYDETLSTLRYADRAKQIKCNAVINEDPNAKLVRELKEEVTRLKDLLRAQGLGDIIDTSMGSLTSSPSSCSLSSQVGLTSVTSIQERIMSTPGGEEAIERLKESEKIIAELNETWEEKLRKTEAIRMEREALLAEMGVAIREDGGTLGVFSPKKTPHLVNLNEDPLMSECLLYYIKDGITRVGQADAERRQDIVLSGAHIKEEHCIFRSERSNSGEVIVTLEPCERSETYVNGKRVSQPVQLRSGNRIIMGKNHVFRFNHPEQARAEREKTPSAETPSEPVDWTFAQRELLEKQGIDMKQEMEKRLQEMEILYKKEKEEADLLLEQQRLDADSDSGDDSDKRSCEESWKLITSLREKLPPSKLQTIVKKCGLPSSGKKREPIKMYQIPQRRRLSKDSKWVTISDLKIQAVKEICYEVALNDFRHSRQEIEALAIVKMKELCAMYGKKDPNERDSWRAVARDVWDTVGVGDEKIEDVMATGKGSTDVDDLKVHIDKLEDILQEVKKQNNMKDEEIKVLRNKMLKMEKVLPLIGSQEQKSPGSHKAKEPVGAGVSSTSENNVSKGDNGELAKEERVSQLMNGDPAFRRGRLRWMRQEQIRFKNLQQQEITKQLRRQNVPHRFIPPENRKPRFPFKSNPKHRNSWSPGTHIIITEDEVIELRIPKDDEARKGNKEESQEKGGKGAFKDPQFPWGSQGMRSQDHIQVSKQHINNQQQPPQLRWRSNSLNNGQPKSTRCQASASAESLNSHSGHPTADVQTFQAKRHIHQHRQSYCNYNTGGQLEGNAATSYQKQTDKPSHCSQFVTPPRMRRQFSAPNLKAGRETTV

Variants of: B1
Details: with dlg1_rat Dlg1, Q62696

Variant	effect of a mutation on the interaction
V1153A	decreasing interaction

Variants of: B1
Details: with magi2_rat Magi2, O88382
magi2_rat Magi2, O88382, sequence (O88382 whole entry): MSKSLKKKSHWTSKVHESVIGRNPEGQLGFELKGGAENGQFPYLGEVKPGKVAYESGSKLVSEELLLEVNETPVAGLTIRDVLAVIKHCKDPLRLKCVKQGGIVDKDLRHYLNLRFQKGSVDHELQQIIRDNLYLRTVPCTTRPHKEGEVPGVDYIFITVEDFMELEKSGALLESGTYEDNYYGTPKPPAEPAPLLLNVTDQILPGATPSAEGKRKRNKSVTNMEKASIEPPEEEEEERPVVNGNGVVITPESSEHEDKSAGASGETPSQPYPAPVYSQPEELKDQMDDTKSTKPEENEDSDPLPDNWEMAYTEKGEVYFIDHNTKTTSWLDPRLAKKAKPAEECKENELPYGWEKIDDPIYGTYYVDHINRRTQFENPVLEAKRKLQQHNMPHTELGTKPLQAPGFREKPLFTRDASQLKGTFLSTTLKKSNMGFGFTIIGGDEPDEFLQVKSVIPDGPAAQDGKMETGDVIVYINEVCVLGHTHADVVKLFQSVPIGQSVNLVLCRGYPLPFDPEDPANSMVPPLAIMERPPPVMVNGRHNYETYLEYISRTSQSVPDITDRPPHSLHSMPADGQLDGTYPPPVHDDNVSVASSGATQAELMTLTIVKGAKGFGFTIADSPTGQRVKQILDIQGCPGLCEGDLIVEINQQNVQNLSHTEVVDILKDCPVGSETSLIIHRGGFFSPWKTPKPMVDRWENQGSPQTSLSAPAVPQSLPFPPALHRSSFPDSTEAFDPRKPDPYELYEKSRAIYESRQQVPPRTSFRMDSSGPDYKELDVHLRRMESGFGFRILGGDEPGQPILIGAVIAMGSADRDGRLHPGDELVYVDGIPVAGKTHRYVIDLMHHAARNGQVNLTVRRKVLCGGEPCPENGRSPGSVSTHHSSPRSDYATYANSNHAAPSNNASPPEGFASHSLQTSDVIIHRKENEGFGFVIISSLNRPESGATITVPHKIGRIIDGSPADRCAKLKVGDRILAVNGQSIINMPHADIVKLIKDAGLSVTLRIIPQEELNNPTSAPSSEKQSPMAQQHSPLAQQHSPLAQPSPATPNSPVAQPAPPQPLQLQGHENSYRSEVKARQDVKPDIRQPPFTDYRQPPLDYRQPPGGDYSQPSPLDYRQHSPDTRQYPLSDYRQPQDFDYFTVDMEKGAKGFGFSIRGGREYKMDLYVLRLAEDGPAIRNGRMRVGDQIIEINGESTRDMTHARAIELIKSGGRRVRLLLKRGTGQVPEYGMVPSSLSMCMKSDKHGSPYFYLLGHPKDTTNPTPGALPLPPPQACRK

Variant	effect of a mutation on the interaction
V1153A	disrupting interaction

Variants of: B1
Details: with dlg1_human DLG1, Q12959
dlg1_human DLG1, Q12959, sequence (Q12959 whole entry, looked up): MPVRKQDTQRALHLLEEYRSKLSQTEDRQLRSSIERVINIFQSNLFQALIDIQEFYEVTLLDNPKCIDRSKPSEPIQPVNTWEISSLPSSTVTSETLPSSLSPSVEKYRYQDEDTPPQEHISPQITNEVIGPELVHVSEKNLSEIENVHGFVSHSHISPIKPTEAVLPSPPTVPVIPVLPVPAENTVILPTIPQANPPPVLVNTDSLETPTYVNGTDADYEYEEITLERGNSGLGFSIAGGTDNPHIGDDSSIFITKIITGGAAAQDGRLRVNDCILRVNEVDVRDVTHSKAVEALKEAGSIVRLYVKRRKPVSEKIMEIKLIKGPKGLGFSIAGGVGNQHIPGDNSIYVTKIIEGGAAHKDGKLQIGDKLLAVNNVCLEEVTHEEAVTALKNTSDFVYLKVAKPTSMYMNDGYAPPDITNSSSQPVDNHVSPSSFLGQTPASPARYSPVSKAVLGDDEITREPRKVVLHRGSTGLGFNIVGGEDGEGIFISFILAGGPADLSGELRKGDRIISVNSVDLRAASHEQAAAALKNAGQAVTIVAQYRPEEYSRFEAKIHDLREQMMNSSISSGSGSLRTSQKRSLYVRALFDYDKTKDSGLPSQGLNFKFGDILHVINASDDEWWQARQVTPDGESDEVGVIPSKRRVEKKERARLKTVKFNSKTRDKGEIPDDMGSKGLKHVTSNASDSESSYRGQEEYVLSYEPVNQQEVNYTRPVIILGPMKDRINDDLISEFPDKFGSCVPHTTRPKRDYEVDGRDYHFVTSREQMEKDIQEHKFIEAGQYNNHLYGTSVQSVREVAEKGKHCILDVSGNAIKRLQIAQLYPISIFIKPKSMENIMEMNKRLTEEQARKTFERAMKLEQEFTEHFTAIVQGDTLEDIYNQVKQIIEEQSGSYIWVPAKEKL

Variant	effect of a mutation on the interaction
V1153A	decreasing interaction

Variants of: B1
Details: with dlg2_rat Dlg2, Q63622
dlg2_rat Dlg2, Q63622, sequence (Q63622 whole entry, looked up): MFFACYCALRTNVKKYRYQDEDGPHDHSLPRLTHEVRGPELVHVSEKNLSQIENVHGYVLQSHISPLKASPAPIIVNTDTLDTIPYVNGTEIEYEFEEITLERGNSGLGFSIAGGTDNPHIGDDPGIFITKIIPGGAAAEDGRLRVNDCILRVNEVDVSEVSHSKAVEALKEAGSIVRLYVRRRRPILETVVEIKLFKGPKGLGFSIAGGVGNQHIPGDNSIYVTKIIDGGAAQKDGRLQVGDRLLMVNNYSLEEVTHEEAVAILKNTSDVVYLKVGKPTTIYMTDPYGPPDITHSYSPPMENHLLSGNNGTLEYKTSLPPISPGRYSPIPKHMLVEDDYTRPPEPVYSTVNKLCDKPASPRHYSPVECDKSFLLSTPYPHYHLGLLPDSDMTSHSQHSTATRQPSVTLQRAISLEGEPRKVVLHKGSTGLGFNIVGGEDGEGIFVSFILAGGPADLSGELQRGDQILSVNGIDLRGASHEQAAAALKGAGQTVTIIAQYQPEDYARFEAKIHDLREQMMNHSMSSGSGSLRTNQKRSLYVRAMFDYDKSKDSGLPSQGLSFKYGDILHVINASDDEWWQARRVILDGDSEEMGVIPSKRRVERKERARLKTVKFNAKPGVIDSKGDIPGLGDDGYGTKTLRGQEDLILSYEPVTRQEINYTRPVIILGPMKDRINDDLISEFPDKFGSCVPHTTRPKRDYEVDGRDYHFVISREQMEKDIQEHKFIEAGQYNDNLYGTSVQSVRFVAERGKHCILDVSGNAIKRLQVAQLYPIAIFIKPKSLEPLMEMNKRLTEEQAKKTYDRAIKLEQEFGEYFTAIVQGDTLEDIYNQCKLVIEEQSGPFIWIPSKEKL

Variant	effect of a mutation on the interaction
V1153A	disrupting interaction

Variants of: B1
Details: with magi1_human MAGI1, Q96QZ7
magi1_human MAGI1, Q96QZ7, sequence (Q96QZ7 whole entry): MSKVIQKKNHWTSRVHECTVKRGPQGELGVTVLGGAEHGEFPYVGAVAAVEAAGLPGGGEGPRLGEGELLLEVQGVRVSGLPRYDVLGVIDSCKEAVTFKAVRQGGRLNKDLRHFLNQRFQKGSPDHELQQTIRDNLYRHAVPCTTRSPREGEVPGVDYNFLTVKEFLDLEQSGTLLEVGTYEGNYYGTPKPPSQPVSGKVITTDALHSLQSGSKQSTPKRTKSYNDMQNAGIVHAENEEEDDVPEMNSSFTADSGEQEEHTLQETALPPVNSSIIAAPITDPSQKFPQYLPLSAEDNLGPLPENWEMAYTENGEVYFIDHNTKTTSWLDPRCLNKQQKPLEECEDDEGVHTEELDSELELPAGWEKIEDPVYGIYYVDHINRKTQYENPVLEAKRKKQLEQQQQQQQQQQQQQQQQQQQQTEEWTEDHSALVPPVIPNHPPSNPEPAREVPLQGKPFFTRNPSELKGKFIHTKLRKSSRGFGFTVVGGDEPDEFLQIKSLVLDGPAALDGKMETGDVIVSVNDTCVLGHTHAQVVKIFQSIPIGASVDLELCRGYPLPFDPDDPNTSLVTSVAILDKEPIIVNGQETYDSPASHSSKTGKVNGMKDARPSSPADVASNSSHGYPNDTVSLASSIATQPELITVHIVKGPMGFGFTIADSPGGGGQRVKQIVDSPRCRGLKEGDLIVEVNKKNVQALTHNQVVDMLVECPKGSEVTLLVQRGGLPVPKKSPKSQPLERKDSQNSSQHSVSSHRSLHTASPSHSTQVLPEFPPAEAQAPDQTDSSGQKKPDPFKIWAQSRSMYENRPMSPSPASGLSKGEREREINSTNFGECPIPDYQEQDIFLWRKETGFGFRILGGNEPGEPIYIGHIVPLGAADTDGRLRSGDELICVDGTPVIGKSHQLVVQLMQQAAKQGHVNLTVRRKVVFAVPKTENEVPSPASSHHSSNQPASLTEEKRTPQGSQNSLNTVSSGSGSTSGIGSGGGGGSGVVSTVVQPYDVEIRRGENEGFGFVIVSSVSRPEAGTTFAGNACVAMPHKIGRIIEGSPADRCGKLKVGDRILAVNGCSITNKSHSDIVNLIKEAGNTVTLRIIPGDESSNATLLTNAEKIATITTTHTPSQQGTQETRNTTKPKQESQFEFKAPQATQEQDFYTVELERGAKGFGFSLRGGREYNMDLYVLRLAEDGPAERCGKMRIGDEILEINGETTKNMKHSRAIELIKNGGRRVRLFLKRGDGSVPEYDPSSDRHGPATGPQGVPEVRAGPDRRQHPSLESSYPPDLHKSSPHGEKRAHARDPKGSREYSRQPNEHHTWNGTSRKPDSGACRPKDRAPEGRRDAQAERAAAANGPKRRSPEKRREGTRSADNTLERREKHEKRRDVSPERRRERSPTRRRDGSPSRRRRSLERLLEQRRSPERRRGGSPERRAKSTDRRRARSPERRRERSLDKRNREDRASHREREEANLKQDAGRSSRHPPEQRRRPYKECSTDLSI

Variant	effect of a mutation on the interaction
V1153A	disrupting interaction
